Where “and” joins values, the source holds several entries; their conditions need not be identical. Equal entries are not always repeated. Marks after values point to notes of the source that are not given here.
How the values were obtained:
[1] = system: B16M cell adhesion to IL-18-treated HSE; test: B16M cell adhesion to IL-18-treated HSE; type: cell-based, mouse
Protocol: FIG. 4. In vitro B16M cells adhesion to IL-18-treated HSE. HSE cells were incubated with 1 ng/ml recombinant murine IL-18 for 6 hours. In some experiments, 10 μg/ml TNF-sRp55 or 100 ng/ml IL-1Ra was added 10 min before IL-18.In other experiments, 10 μg/ml anti-VCAM-1 antibody or a similar concentration of non-specific anti-mouse lgG was added to HSE cells 30 min before B16M cells. Then, B16M cell adhesion percentage was determined as described hereinbelow in the examples. The results represent the mean ±SD of three separate experiments, each in sextuplicate (n=18). Differences in the degree of adhesion with respect to basal medium-treated HSE (*) and to IL-18-treated HSE (**) were statistically significant (P<0.01), according to the Student's two-tailed, unpaired t-test.
(§1) HSE was separated from syngeneic mice, identified and cultured as previously described (26). B16M cells were labeled with 2′,7′-bis-(2-carboxyethyl)-5,6-carboxyfluorescein-acetoxymethylester solution (BCECF-AM, Molecular Probes, Eugene, Oreg.) as reported (16). Then, 2×10^5 cells/well were added to 24-well-plate cultured HSE and 8 min later, wells were washed three times with fresh medium. The number of adhering cells was determined using a quantitative method based on a previously described fluorescence measurement system (16). In some experiments, HSE cells were pre-incubated with B16M-CM for several hours before addition of B16M cells.

[2] = system: B16M cells; test: Adhesion of pre-treated B16M cells (IL-18 or supernatant of B16M-CM-treated HSE) to HSE; type: cell-based, mouse; details: B16M cells incubated with 1 ng/ml murine IL-18 for 6 h
Protocol: However, local production of IL-18 may influence B16M cell behavior during its transit or arrest in the hepatic microvasculature.
as §1

[3] = system: B16M cell adhesion to HSE cells; test: B16M cell adhesion to B16M-CM-treated primary HSE cultures; type: cell-based, mouse; details: for % Melanoma Cell Adhesion: HSE stimulated with B16-CM
Protocol: FIG. 2 Effect of irreversible ICE inhibitor and anti-mouse IL-18 antibody on B16M cell adhesion to HSE cells, and IL-1β and TNF-α production from untreated and B16M-CM-treated HSE. Cultured HSE cells were incubated in the presence of B16M-CM for 10 h. In some experiments, both untreated and treated HSE cells received 10 μM ICEi or 10 μg/ml anti-mouse IL-18 antibody before B16M-CM. The percentage of B16M cells adhered to HSE substrate was calculated as relative value with respect to the initial number of added cells. In addition, the culture supernatants were recovered before adhesion to determine IL-1β and TNF-α concentration by ELISA. Data represent the mean ±SD of 4 separate experiments, each in sextuplicate (n=24). The augmentation of B16M cell adhesion to B16M-CM-treated HSE and of IL-1β or TNF-α production with respect to untreated HSE (*P<0.01) were statistically significant according to the Student's two-tailed, unpaired t-test.
(§2) FIG. 3. Effect of ICEi on B16M cell adhesion to B16M-CM-treated HSE in vitro. HSE cells were incubated with basal medium or B16M-CM for 8 h. Some HSE cells received 10 μM ICEi for 18 h before B16M-CM. In addition, 1 ng/ml recombinant murine IL-1β was also added to some HSE cells together with B16M-CM for 8 h. In other experiments, HSE cells received 1 ng/ml murine IL-1β or 100 pg/ml TNF-α for 6 h, and 10 μg/ml rabbit anti-mouse IL-18 polyclonal antibody was added or not 1 h before the cytokine treatment. Non-specific IgG polyclonal antibody was also added to untreated and cytokine-treated HSE cells. Then, HSE cells were washed and BCEFCF-AM-labeled B16M cells were added and washed again 8 min later. The percentage of B16M cells adhered to HSE substrate was calculated as relative value with respect to the initial number of added cells. The results represent the mean ±SD of three separate experiments, each in sextuplicate (n=18). Differences in the degree of adhesion with respect to untreated HSE (*) and to IL-1β or TNF-α-treated HSE (**) were statistically significant (P<0.01), according to the Student's two-tailed, unpaired t-test.
Culture of B16M cells. B16M cells were cultured, maintained and passaged as previously described (11). B16M conditioned medium (B16M-CM) was prepared as follows: 5×10^5 cells were plated in a 25 cm^2 T-flask and cultured for 24 h. After which, cells were cultured for an additional period of 24 h in 5 ml serum-free medium (final cellular density of 6×10^4 cells/cm^2). Supernatants were collected, diluted 3:1 in fresh serum-free medium and passed through a 0.22 Ïm filter.
(§3) HSE was separated from syngeneic mice, identified and cultured as previously described (26). […] The number of adhering cells was determined using a quantitative method based on a previously described fluorescence measurement system (16). […]

[4] = system: B16M cell adhesion to IL-1β or TNF-α-treated HSE; test: B16M cell adhesion to IL-1β- or TNF-α-treated HSE; type: cell-based, mouse; details: 1 ng/ml murine IL-1β
Protocol: as §2, §3

[5] = molecular target: T1, IL-18 (Homo sapiens, UniProt Q14116); details: in vitro; cited from earlier work
T1 sequence (Q14116 37-193): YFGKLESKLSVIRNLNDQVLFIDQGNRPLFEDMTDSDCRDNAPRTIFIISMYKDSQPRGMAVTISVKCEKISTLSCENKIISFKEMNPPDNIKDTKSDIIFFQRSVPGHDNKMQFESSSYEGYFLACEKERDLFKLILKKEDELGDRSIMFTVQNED

[6] = system: circulating IFN-γ; details: administration of IL-18BP to mice; cited from earlier work

IL-1Ra: recombinant human IL-1 receptor antagonist, gift from The Upjohn Co. [reference compound]
inhibition of IL-18-induced B16M cell adhesion to HSE ([1]; 100 ng/ml IL-1Ra added 10 min before IL-18): neither TNF-sR p55 nor IL-1Ra were able to inhibit it

B1: murine IL-18: recombinant murine IL-18 purchased from PeproTech (protein, UniProt P70380 36-192, looked up)
Interleukin-18: NFGRLHCTTAVIRNINDQVLFVDKRQPVFEDMTDIDQSASEPQTRLIIYMYKDSEVRGLAVTLSVKDSKMSTLSCKNKIISFEEMDPPENIDDIQSDLIFFQKRVPGHNKMEFESSLYEGHFLACQKEDDAFKLILKKKDENGDKSVMFTLTNLHQS
B16M cell adhesion to HSE ([1]; HSE incubated with 1 ng/ml recombinant murine IL-18 for 6 hours, P<0.01): increased | increase of B16M cell adhesion to untreated HSE [2]: 2 fold

B2: TNF-sR p55: human p55 TNF soluble receptor, gift from Serono Inc. (protein, UniProt P19438 30-211, looked up)
extracellular domain: LVPHLGDREKRDSVCPQGKYIHPQNNSICCTKCHKGTYLYNDCPGPGQDTDCRECESGSFTASENHLRHCLSCSKCRKEMGQVEISSCTVDRDTVCGCRKNQYRHYWSENLFQCFNCSLCLNGTVHLSCQEKQNTVCTCHAGFFLRENECVSCSNCKKSLECTKLCLPQIENVKGTEDSGTT
modifications: extracellular domain
inhibition of IL-18-induced B16M cell adhesion to HSE ([1]; 10 μg/ml TNF-sRp55 added 10 min before IL-18): neither TNF-sR p55 nor IL-1Ra were able to inhibit it

B3: murine IL-1β: recombinant murine IL-1β from R&D System Inc. (protein, UniProt P10749 118-269, looked up)
Interleukin-1 beta: VPIRQLHYRLRDEQQKSLVLSDPYELKALHLNGQNINQQVIFSMSFVQGEPSNDKIPVALGLKGKNLYLSCVMKDGTPTLQLESVDPKQYPKKKMEKRFVFNKIEVKSKVEFESAEFPNWYISTSQAEHKPVFLGNNSGQDIIDFTMESVSS
compensation of the blocking effect of ICEi on HSE adhesiveness ([3]; 1 ng/ml murine IL-1β added with B16M-CM for 8 h to ICEi-treated HSE): did not compensate | B16M cell adhesion to IL-1β-treated control HSE [4]: significant B16M cell adhesion increase

B4: IL-18BP: IL-18 binding protein, purified from urine, cloned and expressed in COS7 cells; binds IL-18 and blocks its activity (protein, UniProt O95998 31-194, looked up)
Interleukin-18-binding protein: TPVSQTTTAATASVRSTKDPCPSQPPVFPAAKQCPALEVTWPEVEVPLNGTLSLSCVACSRFPNFSILYWLGNGSFIEHLPGRLWEGSTSRERGSTGTQLCKALVLEQLTPALHSTNFSCVLVDPEQVVQRHVVLAQLWAGLRATLPPTQEALPSSHSSPQQQG
% Melanoma Cell Adhesion ([3]; IL-18BP 1 ng/ml): 15.00 ± 2.5** % | % Melanoma Cell Adhesion ([3]; IL-18BP 10 ng/ml): 8.70% and 8.70 ± 1.1** % | inhibition of B16-CM-induced adhesion ([3]; IL-18BP 10 ng/ml, adhesion below basal medium level): 100% | IL-18 activation of NF-κB [5]: abolished | IL-18 induction of IL-8 [5]: abolished | IL-18 induction of interferon-γ (IFN-γ) [5]: abolished | circulating IFN-γ following LPS [6]: abrogated
